Legend:
Assay in all cases: cell-based or functional assay
[1] = target: Cry2 PHR-p65 AD (Arabidopsis thaliana; human) (UniProt Q96524)
[2] = target: NLSx2-p65 AD-Cry2 PHR (L348F) (human; Arabidopsis thaliana)
[3] = target: Cry2 PHR-p65 AD-NLSx2 (Arabidopsis thaliana; human)
[4] = target: p65 AD-Cry2 535 (human; Arabidopsis thaliana) (UniProt Q04206)
[5] = target: p65 AD-Cry2 PHR (L348F) (human; Arabidopsis thaliana) (UniProt Q04206)
[6] = target: Cry2 PHR (L348F)-p65 AD-NLSx2
[7] = target: p65 AD-Cry2 535 (L348F) (human; Arabidopsis thaliana) (UniProt Q04206)
[8] = target: Cry2 PHR (L348F)-p65 AD (Arabidopsis thaliana; human) (UniProt Q96524)
[9] = target: p65 AD-Cry2 PHR (human; Arabidopsis thaliana) (UniProt Q04206)
[10] = target: NLSx2-p65 AD-Cry2 PHR (human; Arabidopsis thaliana)

**Q.** TetR (I194T, 1-206)-SPKKK-CIB1 full was tested. Which Average of the Light/Dark ratio [1] did it give?
**A.** Its Average of the Light/Dark ratio is 1.5.

**Q.** And the Light/Dark [1]?
**A.** Its Light/Dark is 1.7.

**Q.** And the Ub-ELuc luciferase, Dark [1]?
**A.** The Ub-ELuc luciferase, Dark was 2.4 relative.

**Q.** What about the Ub-ELuc luciferase, Light [1] of the same substance?
**A.** Its Ub-ELuc luciferase, Light is 4.1 relative.

**Q.** What about the Average of the Light/Dark ratio [2] of the same substance?
**A.** Its Average of the Light/Dark ratio is 1.7.

**Q.** What about the Light/Dark [2] of the same substance?
**A.** Its Light/Dark is 1.8.

**Q.** And the Ub-ELuc luciferase, Dark [2]?
**A.** The Ub-ELuc luciferase, Dark was 19.3 relative.

**Q.** What about the Ub-ELuc luciferase, Light [2] of the same substance?
**A.** The Ub-ELuc luciferase, Light was 34.3 relative.

**Q.** What about the Average of the Light/Dark ratio [3] of the same substance?
**A.** The Average of the Light/Dark ratio was 0.9.

**Q.** What about the Light/Dark [3] of the same substance?
**A.** The Light/Dark was 0.8.

**Q.** What about the Ub-ELuc luciferase, Dark [3] of the same substance?
**A.** The Ub-ELuc luciferase, Dark was 20.1 relative.

**Q.** And the Ub-ELuc luciferase, Light [3]?
**A.** The Ub-ELuc luciferase, Light was 16.6 relative.

**Q.** What about the Average of the Light/Dark ratio [4] of the same substance?
**A.** Its Average of the Light/Dark ratio is 2.1.

**Q.** And the Light/Dark [4]?
**A.** The Light/Dark was 2.1.

**Q.** And the Ub-ELuc luciferase, Dark [4]?
**A.** The Ub-ELuc luciferase, Dark was 4.3 relative.

**Q.** What about the Ub-ELuc luciferase, Light [4] of the same substance?
**A.** Its Ub-ELuc luciferase, Light is 8.7 relative.

**Q.** What about the Average of the Light/Dark ratio [5] of the same substance?
**A.** The Average of the Light/Dark ratio was 1.7.

**Q.** What about the Light/Dark [5] of the same substance?
**A.** The Light/Dark was 2.2.

**Q.** What about the Ub-ELuc luciferase, Dark [5] of the same substance?
**A.** The Ub-ELuc luciferase, Dark was 8.3 relative.

**Q.** And the Ub-ELuc luciferase, Light [5]?
**A.** The Ub-ELuc luciferase, Light was 17.2 relative.

**Q.** What about the Average of the Light/Dark ratio [6] of the same substance?
**A.** The Average of the Light/Dark ratio was 1.

**Q.** What about the Light/Dark [6] of the same substance?
**A.** The Light/Dark was 1.4.

**Q.** What about the Ub-ELuc luciferase, Dark [6] of the same substance?
**A.** The Ub-ELuc luciferase, Dark was 5.1 relative.

**Q.** And the Ub-ELuc luciferase, Light [6]?
**A.** Its Ub-ELuc luciferase, Light is 6.8 relative.

**Q.** What about the Average of the Light/Dark ratio [7] of the same substance?
**A.** Its Average of the Light/Dark ratio is 2.

**Q.** What about the Light/Dark [7] of the same substance?
**A.** Its Light/Dark is 2.3.

**Q.** What about the Ub-ELuc luciferase, Dark [7] of the same substance?
**A.** Its Ub-ELuc luciferase, Dark is 4.8 relative.

**Q.** What about the Ub-ELuc luciferase, Light [7] of the same substance?
**A.** The Ub-ELuc luciferase, Light was 10.5 relative.

**Q.** What about the Average of the Light/Dark ratio [8] of the same substance?
**A.** Its Average of the Light/Dark ratio is 1.6.

**Q.** And the Light/Dark [8]?
**A.** Its Light/Dark is 1.6.

**Q.** And the Ub-ELuc luciferase, Dark [8]?
**A.** The Ub-ELuc luciferase, Dark was 2.7 relative.

**Q.** And the Ub-ELuc luciferase, Light [8]?
**A.** Its Ub-ELuc luciferase, Light is 4.3 relative.

**Q.** What about the Average of the Light/Dark ratio [9] of the same substance?
**A.** The Average of the Light/Dark ratio was 1.6.

**Q.** And the Light/Dark [9]?
**A.** The Light/Dark was 1.6.

**Q.** What about the Ub-ELuc luciferase, Dark [9] of the same substance?
**A.** Its Ub-ELuc luciferase, Dark is 13.8 relative.

**Q.** And the Ub-ELuc luciferase, Light [9]?
**A.** The Ub-ELuc luciferase, Light was 20.7 relative.

**Q.** And the Average of the Light/Dark ratio [10]?
**A.** The Average of the Light/Dark ratio was 1.9.

**Q.** And the Light/Dark [10]?
**A.** Its Light/Dark is 2.4.

**Q.** What about the Ub-ELuc luciferase, Dark [10] of the same substance?
**A.** The Ub-ELuc luciferase, Dark was 21.9 relative.

**Q.** What about the Ub-ELuc luciferase, Light [10] of the same substance?
**A.** The Ub-ELuc luciferase, Light was 50.9 relative.

**Q.** Which Average of the Light/Dark ratio [1] does the source give for “TetR (I194T, 1-206)-SPKKK-CIB1 full no NLS” here?
**A.** Its Average of the Light/Dark ratio is 1.4.

**Q.** What about the Light/Dark [1] of the same substance?
**A.** The Light/Dark was 2.

**Q.** What about the Ub-ELuc luciferase, Dark [1] of the same substance?
**A.** Its Ub-ELuc luciferase, Dark is 3 relative.

**Q.** And the Ub-ELuc luciferase, Light [1]?
**A.** Its Ub-ELuc luciferase, Light is 5.4 relative.

**Q.** And the Average of the Light/Dark ratio [2]?
**A.** Its Average of the Light/Dark ratio is 1.4.

**Q.** And the Light/Dark [2]?
**A.** Its Light/Dark is 1.9.

**Q.** What about the Ub-ELuc luciferase, Dark [2] of the same substance?
**A.** The Ub-ELuc luciferase, Dark was 50.2 relative.

**Q.** What about the Ub-ELuc luciferase, Light [2] of the same substance?
**A.** Its Ub-ELuc luciferase, Light is 86.8 relative.

**Q.** And the Average of the Light/Dark ratio [3]?
**A.** Its Average of the Light/Dark ratio is 0.9.

**Q.** And the Light/Dark [3]?
**A.** Its Light/Dark is 0.9.

**Q.** And the Ub-ELuc luciferase, Dark [3]?
**A.** Its Ub-ELuc luciferase, Dark is 30.1 relative.

**Q.** And the Ub-ELuc luciferase, Light [3]?
**A.** The Ub-ELuc luciferase, Light was 25.2 relative.

**Q.** And the Average of the Light/Dark ratio [4]?
**A.** Its Average of the Light/Dark ratio is 2.

**Q.** What about the Light/Dark [4] of the same substance?
**A.** The Light/Dark was 3.3.

**Q.** And the Ub-ELuc luciferase, Dark [4]?
**A.** Its Ub-ELuc luciferase, Dark is 10.4 relative.

**Q.** What about the Ub-ELuc luciferase, Light [4] of the same substance?
**A.** The Ub-ELuc luciferase, Light was 31.8 relative.

**Q.** What about the Average of the Light/Dark ratio [5] of the same substance?
**A.** The Average of the Light/Dark ratio was 1.4.

**Q.** What about the Light/Dark [5] of the same substance?
**A.** The Light/Dark was 1.6.

**Q.** And the Ub-ELuc luciferase, Dark [5]?
**A.** The Ub-ELuc luciferase, Dark was 33 relative.

**Q.** What about the Ub-ELuc luciferase, Light [5] of the same substance?
**A.** The Ub-ELuc luciferase, Light was 47.9 relative.

**Q.** What about the Average of the Light/Dark ratio [6] of the same substance?
**A.** The Average of the Light/Dark ratio was 0.9.

**Q.** And the Light/Dark [6]?
**A.** Its Light/Dark is 1.2.

**Q.** What about the Ub-ELuc luciferase, Dark [6] of the same substance?
**A.** The Ub-ELuc luciferase, Dark was 11.3 relative.

**Q.** What about the Ub-ELuc luciferase, Light [6] of the same substance?
**A.** The Ub-ELuc luciferase, Light was 12.4 relative.

**Q.** And the Average of the Light/Dark ratio [7]?
**A.** The Average of the Light/Dark ratio was 2.

**Q.** And the Light/Dark [7]?
**A.** The Light/Dark was 2.7.

**Q.** And the Ub-ELuc luciferase, Dark [7]?
**A.** Its Ub-ELuc luciferase, Dark is 9.3 relative.

**Q.** And the Ub-ELuc luciferase, Light [7]?
**A.** The Ub-ELuc luciferase, Light was 23.9 relative.

**Q.** And the Average of the Light/Dark ratio [8]?
**A.** The Average of the Light/Dark ratio was 1.2.

**Q.** And the Light/Dark [8]?
**A.** Its Light/Dark is 1.5.

**Q.** And the Ub-ELuc luciferase, Dark [8]?
**A.** The Ub-ELuc luciferase, Dark was 4.8 relative.

**Q.** And the Ub-ELuc luciferase, Light [8]?
**A.** The Ub-ELuc luciferase, Light was 7.2 relative.

**Q.** What about the Average of the Light/Dark ratio [9] of the same substance?
**A.** The Average of the Light/Dark ratio was 1.5.

**Q.** And the Light/Dark [9]?
**A.** The Light/Dark was 2.

**Q.** What about the Ub-ELuc luciferase, Dark [9] of the same substance?
**A.** Its Ub-ELuc luciferase, Dark is 36.2 relative.

**Q.** And the Ub-ELuc luciferase, Light [9]?
**A.** The Ub-ELuc luciferase, Light was 65.2 relative.

**Q.** And the Average of the Light/Dark ratio [10]?
**A.** The Average of the Light/Dark ratio was 1.6.

**Q.** What about the Light/Dark [10] of the same substance?
**A.** The Light/Dark was 2.2.

**Q.** What about the Ub-ELuc luciferase, Dark [10] of the same substance?
**A.** Its Ub-ELuc luciferase, Dark is 56 relative.

**Q.** And the Ub-ELuc luciferase, Light [10]?
**A.** Its Ub-ELuc luciferase, Light is 109 relative.

From patent US20210340548A1
